Test results: PMC2794548, “Real-Time Imaging and Quantification of Amyloid-β Peptide Aggregates by Novel Quantum-Dot Nanoprobes” (PLoS ONE, 2009)

Legend:
[1] = Kinetic analysis of Aβ40 and Aβ42 aggregations by SDS-PAGE; type: physicochemical, Human; settings: 50 µM peptide in PBS without SDS, 37°C
Method: These Aβ solutions were diluted at 50 µM in PBS with or without 1 mM SDS, and 5 µl of aliquots were incubated for various time periods at 37°C. The samples were mixed with sample buffer (final concentration: 50 mM Tris-HCl (pH 6.8), 2% SDS, 0.1% bromophenol blue, and 10% glycerol) and immediately electrophoresed using 16.5% Tris-Tricine gels or 16% Tris-Glycine gels. These gels were stained with Coomassie brilliant blue.
After the incubation, these samples were electrophoresed using 16.5% Tris-Tricine (a and c) and 16% Tris-Glycine gels (b and d). […] [1] Schagger H (2006) Tricine-SDS-PAGE. Nat Protoc 1: 16–22. Laemmli UK (1970) Cleavage of structural proteins during the assembly of the head of bacteriophage T4. Nature 227: 680–685. (1.27 MB TIF) Click here for additional data file.

Aβ42 = Aβ42 (Homo sapiens, UniProt P05067); assay: Imaging of fibril formation: coaggregation of QDAβ with intact Aβ42, wide-field fluorescence microscopy; type: physicochemical; settings: 0.1% QDAβ(6)-containing 50 µM Aβ42, 1 day on ice
Text: (b) Fluorescence intensities of the aggregates in (a). Fluorescence intensities measured from 20 randomly selected fields (100×100 pixel: 8.6×8.6 μm) containing the aggregates are shown as relative % intensity against QDAβ(6) group. *** denotes P<0.001 for QDAβ (6)- versus QDAβ (1)- or QDAβ (0)-samples and ## denotes 0.001<P<0.01 for QDAβ (1)- versus QDAβ (0) samples. Error bars indicate SD (n = 20). […], spread between glass slides and cover slips, and observed by regular microscopy using a 100x objective lens with QD filter set (left micrograph) and […] (right three micrographs). […] The right three micrographs are magnified and brightened micrographs. The top right micrograph is the boxed area in the left micrograph. […] To remove any aggregates, the mixtures were centrifuged at 10,000×g for 1 min at 4°C. The mixtures (50 μl) were put in microcentrifuge tubes or 96-well glass bottom plates (MatTek). […] Supplementary file pone.0008492.s006.tif: Figure S4 Dose- and time-dependent coaggregation. […] (7.12 MB TIF) Click here for additional data file. Supplementary file pone.0008492.s007.tif: Figure S5 Temperature-dependent Aβ aggregation. […] (1.67 MB TIF) Click here for additional data file.

[2] = 4D imaging of Aβ aggregation by swept-field confocal microscopy; type: physicochemical, Human
Method: (a) 4D imaging of Aβ aggregation. […] (b) Time-course of Aβ aggregation. The volumes of Aβ aggregates measured from three 4D experiments (red, blue, and green). The total volume of the observed space is 1.9×10^6 µm^3 (138×138×100 µm).
To remove any aggregates, the mixtures were centrifuged at 10,000×g for 1 min at 4°C. The mixtures (50 µl) were put in microcentrifuge tubes or 96-well glass bottom plates (MatTek). The samples in microcentrifuge tubes were incubated for various time periods at 37°C in an air incubator, and observed by wide-field fluorescence microscopy or electron microscopy. The samples in 96-well glass bottom plates were incubated at 37°C in 5% CO2 in a culture chamber (LiveCell™, Pathology Devices), and directly observed by wide-field fluorescence microscopy or swept-field laser-scanning confocal microscopy [QDAβ: Excitation: 488 nm at 15% power; Emission filter: Chroma Quad Filter (#C68208) for FITC].
QD was excited by an argon laser, and Lysotracker and Mitotracker were excited by an argon/krypton laser.

[3] = 10–35 µM Aβ42 in phosphate buffer (pH 7.5 or pH 7.4); cited from earlier work
[4] = 0.1% QDAβ(6)-containing 100 µM Aβ42, 37°C, imaged every 30 min over 20 h, three 4D experiments

Aβ42, sequence (P05067 672-713 limits assumed): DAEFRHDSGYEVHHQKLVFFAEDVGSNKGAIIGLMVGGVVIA

Substance | oligomer formation after 5 days ([1]; SDS-PAGE (Fig. S1c, d)) | time to formation of trimeric and tetrameric species from the start of incubation ([1]; SDS-PAGE, Coomassie (Fig. S1a)) [h] | aggregation after incubation on ice (Aβ42) | lag time of aggregation [2, 4] | time at which aggregation reached a plateau [2, 4] | density of stacked-Aβ aggregates on the glass bottom in a steady state ([2]; estimated from 4D imaging data, 100 µM Aβ42 with 0.1% QDAβ(6)) [mg/mL] | lag time of ThT binding [3] | time at which ThT binding reached a plateau [3] [h]
Aβ40: Human amyloid peptide Aβ40 (Biosource) | did not form oligomers | – | – | – | – | – | – | –
Aβ42: Human amyloid peptide Aβ42 (Biosource) | – | ≤ 0.3 | did not observe aggregation | approximately 1.5 h | around 12 h | 32 ± 6 | several minutes | 1 to 2
